The values below come from US20250361296A1 (BIOCYTOGEN PHARMACEUTICALS BEIJING, published 2025).

Assay [1] concerns the target T1, human SIGLEC15 on CHO-S-hSIGLEC15 cells (human, UniProt Q6ZMC9 20-328).
T1 sequence: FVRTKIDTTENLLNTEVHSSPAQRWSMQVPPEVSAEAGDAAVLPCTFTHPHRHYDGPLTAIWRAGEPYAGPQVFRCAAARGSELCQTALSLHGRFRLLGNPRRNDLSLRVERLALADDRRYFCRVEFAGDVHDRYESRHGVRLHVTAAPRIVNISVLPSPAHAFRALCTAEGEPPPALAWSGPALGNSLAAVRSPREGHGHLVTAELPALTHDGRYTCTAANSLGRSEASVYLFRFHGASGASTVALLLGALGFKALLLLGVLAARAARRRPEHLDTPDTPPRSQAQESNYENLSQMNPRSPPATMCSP
Kind of assay: flow cytometry (MFI) on CHO-S-hSIGLEC15 cells; antibody sample: pH 3.5 0 h. The method, then: (§1) In the activity detection experiment, 30 μL of CHO-S-hSIGLEC15 cells were added to the culture plate, and the antibody to be tested was added in a gradient dilution ([…]), and incubated at 4° C. for 30 min. The plate was washed with PBS, and diluted secondary antibody Anti-hIgG-Fc-Alex Flour 647 (RL1-H) (1:2000) was added, incubated at 4° C. for 30 min. The plate was washed once with PBS and the cells were resuspended for flow cytometry detection. MFI value was derived by FlowJo 7.6.1 analysis to calculate EC50.
For orientation: A flow cytometer gives signals particle by particle.

The target of assay [2] is T1, human SIGLEC15 on CHO-S-hSIGLEC15 cells. Kind of assay: flow cytometry (MFI) on CHO-S-hSIGLEC15 cells; antibody sample: 4° C. 7 d. The method, then: as §1
Assay [3] has the same target. Kind of assay: flow cytometry (MFI) on CHO-S-hSIGLEC15 cells; antibody sample: freeze 10. As for the experimental part: as §1
The target is the same in assay [4]. Briefly: flow cytometry (MFI) on CHO-S-hSIGLEC15 cells; antibody sample: 40° C. 7 d. As for the experimental part:
as §1

Assay [5] deals with T2, His-tagged mouse SIGLEC15 protein (mSIGLEC15-His, ACROBiosystems Inc., Cat #: SG5-M52H7) (mouse).
T2 construct: Bought protein; not shown: His tag
T2 chain: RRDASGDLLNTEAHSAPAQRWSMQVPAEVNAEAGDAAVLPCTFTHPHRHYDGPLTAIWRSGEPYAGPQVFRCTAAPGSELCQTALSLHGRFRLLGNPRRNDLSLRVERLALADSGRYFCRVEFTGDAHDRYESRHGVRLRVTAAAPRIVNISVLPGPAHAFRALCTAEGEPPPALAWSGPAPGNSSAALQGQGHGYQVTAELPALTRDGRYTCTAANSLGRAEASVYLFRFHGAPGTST
Briefly: SPR (Biacore 8K), antibody captured on Protein A chip, His-tagged SIGLEC15 as analyte. As for the experimental part: Purified anti-SIGLEC15 antibodies was captured on the Protein A chip (Series S Sensor Chip Protein A) for the detection. […] The flow rate was 30 μL/min, the binding and dissociation time were set to 180 s and 600 s, respectively. The chip was regenerated after the last injection of each titration with a glycine solution (pH 2.0) at 30 μL/min for 30 seconds.
Kinetic association rates (kon) and dissociation rates (koff) were obtained simultaneously by fitting the data globally to a 1:1 Langmuir binding model (Karlsson, R. Roos, H. Fagerstam, L. Petersson, B., 1994. Methods Enzymology 6. 99-110) using Biacore™ 8K Evaluation Software 3.0. Affinities were deduced from the quotient of the kinetic rate constants (KD=koff/kon). As a person of ordinary skill in the art would understand, the same method with appropriate adjustments for parameters (e.g., antibody concentration) was performed for each tested antibody.
For orientation: Surface plasmon resonance follows binding to a sensor surface in real time, without labels.

What is called EC50 is the concentration giving half of the maximal effect. Read a low EC50 as a more potent agent. The Kd is the free concentration of one partner at which half of the binding sites on the other are occupied at equilibrium, for simple one-to-one binding. Read a high Kd as weaker binding. Broadly, the koff is the first-order rate constant of dissociation. Read a high koff as fast dissociation. A word on the kon: it is the second-order rate constant of association. The low end stands for slow association, the high end for fast association.

B1: anti-SIGLEC15 antibody 10C9 (antibody, human IgG1, V domains shown)
VH: QVQLVQSGAEVKKPGATVKVSCKASGYTFTNYGFSWVRQAPGQGLEWMGWINTYNDNTNYAQKFQGRVTMTTDTSTSTAYMELRSLRSDDTAVYYCARDGLWFGELPHYFDYWGQGTLVTVSS
VL: DIQLTQSPLSSPVTLGQPASISCRSSQSLVNSDGETFLSWLQQRPGQPPRLLIYKISNRFSGVPDRFSGSGAGTDFTLKISRVEAEDVGVYYCMQATQFPHTFGQGTKLEIK
Turning to B1, the EC50 in assay [1] was 0.44 µg/mL; in assay [2], 0.85 µg/mL; in assay [3] it was 0.81 µg/mL; in assay [4] it was 0.6 µg/mL. Moreover, in assay [5], binding was characterised by a dissociation constant (Kd) of 2.17 nM. In assay [5], this molecule returned a koff of 0.00253 s⁻¹. For the same molecule, the kon in assay [5] is 1.17e+06 M⁻¹ s⁻¹.

B2: anti-SIGLEC15 antibody 23F4 (antibody, human IgG1, V domains shown)
VH: QVQLQQWGAGLLKPSETLSLTCAVYGGSFSGYFWSWIRQPPGKGLEWIGEINHSGSTNYNPSLKSRVTLSVDTSKNQFSLKLSSVTAADTAVYYCAREGDSSSWGNWFDPWGQGTLVTVSS
VL: EIVLTQSPGTLSLSPGERATLSCRASQSVSSSYLAWYQQKPGQAPRFLIYGASSRATGIPDRFSGSGSGTDFTLTISRLEPEDFAVYYCQQFGNSPLTFGGGTKVEIK
B2: the EC50 in assay [1] amounted to 0.148 µg/mL; in assay [2], 0.122 µg/mL; in assay [3] it was 0.129 µg/mL; in assay [4] it was 0.111 µg/mL. In assay [5], the Kd was found to be 1.97 nM. In assay [5], the koff is 0.00126 s⁻¹. In addition, in assay [5], the kon turned out to be 639000 M⁻¹ s⁻¹.
